According to paper PMC4999505, “Linear ubiquitination is involved in the pathogenesis of optineurin-associated amyotrophic lateral sclerosis” (Nature Communications, 2016):

Key:
[1] = target: the molecule itself; test: crystal structure; OPTN CC2-UBAN (416–510) crystallised with linear tetraubiquitin, hanging drop, 16% PEG 3350, 250 mM HCOOK, 20 °C; 2.7 Å
[2] = target: T1, linear (M1-linked) tetraubiquitin (UniProt P0CG48 1-76; P0CG48 1-76; P0CG48 1-76; P0CG48 1-76); test: as above; conditions: both partners purified
T1 construct: ubiquitin, first unit of four joined head to tail (M1-linked); ubiquitin, second unit; ubiquitin, third unit; ubiquitin, fourth unit; also called linear tetraubiquitin; linear tetra-ubiquitin; source: E. coli, purified (heat treatment, HiTrap SP, Superdex 200)
T1 sequence (P0CG48 1-304, one chain of several): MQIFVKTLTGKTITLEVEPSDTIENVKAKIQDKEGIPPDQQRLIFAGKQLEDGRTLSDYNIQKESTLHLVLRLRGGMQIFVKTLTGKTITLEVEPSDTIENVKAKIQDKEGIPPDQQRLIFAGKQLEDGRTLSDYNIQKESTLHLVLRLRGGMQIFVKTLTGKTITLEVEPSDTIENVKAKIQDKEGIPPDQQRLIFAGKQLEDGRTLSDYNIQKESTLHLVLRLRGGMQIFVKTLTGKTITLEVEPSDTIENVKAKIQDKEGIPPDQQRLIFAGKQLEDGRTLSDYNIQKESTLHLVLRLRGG

binding result [2]: binds
B1: human OPTN CC2-UBAN region (residues 416–510) (domain or fragment, UniProt Q96CV9 416-510, looked up)
chain: EKVDRAVLKELSEKLELAEKALASKQLQMDEMKQTIAKQEEDLETMTILRAQMEVYCSDFHAERAAREKIHEEKEQLALQLAVLLKENDAFEDGG
notes: residues 445-505 modelled for the longest chain; GST was cut off with Turbo3C (HRV3C) protease; also called OPTN-UBAN; source: E. coli Rosetta 2 (DE3), purified (glutathione Sepharose 4B, on-column cleavage, Resource Q, Superdex 75)
stoichiometry N [1]: 2
